Data: article doi:10.1101/2025.09.22.677689

Molecular target: preformed TPX2-NLS - importin α ΔIBB complex (mouse) (UniProt A2APB8)
Experiment: pull-down; competition: GST-TPX2 NLS on magnetic glutathione beads first incubated with importin α ΔIBB, washed, then increasing concentrations of CFDP1 proteins in transfer buffer, 1 h at 4°C; SDS-PAGE with Coomassie stain or immunoblot

percent decrease of TPX2 bound importin α: 11%
Substance: CFDP1 basic C-terminal fragment (aa 150-295), HIS tagged (from UniProt O88271 150-295) (domain or fragment)
